Legend:
cynomolgus monkeys = assay: specific antibody against the fusion protein in monkey serum, ELISA; type: in vivo; conditions: serum of three cynomolgus monkeys one month after dosing
Source text: The serum samples of the cynomolgus monkeys receiving the fusion protein GLP1(A8G/G22E/R36G)-Fn8-p246-COL18NC1 were withdrawn one month after dosing to examine whether specific antibody against GLP1(A8G/G22E/R36G)-Fn8-p246-COL18NC1 has been generated.

[1] = analytical gel filtration (Superdex200), apparent molecular weight; type: physicochemical
Source text: In the fusion protein of GLP-1(A8G/G22E)-Fn8-COL18NC1 described in example 4, the flexible unstructured linker between Fn8 and COL18NC1 contains six residues (GGGSGG; SEQ ID NO:89). To generate the flexible un-structured linkers with different lengths, we have synthesized the genes GLP-1(A8G/G22E/R36S)-Fn8-COL18NC1-20, GLP-1(A8G/G22E/R36S)-Fn8-COL18NC1-30, GLP-1(A8G/G22E/R36S)-Fn8-COL18NC1-54 and GLP-1(A8G/G22E/R36S)-Fn8-COL18NC1-60. In these genes, the length of the flexible unstructured polypeptide linker between Fn8 and COL18NC1 contained 20, 30, 54 and 60 residues, respectively. The protein sequences of GLP-1(A8G/G22E/R36S)-Fn8-COL18NC1-20, GLP-1(A8G/G22E/R36S)-Fn8-COL18NC1-30, GLP-1(A8G/G22E/R36S)-Fn8-COL18NC1-54 and GLP-1(A8G/G22E/R36S)-Fn8-COL18NC1-60 are listed as SEQ ID NO:8-11. The synthetic genes of GLP-1(A8G/G22E/R36S)-Fn8-COL18NC1-20, GLP-1(A8G/G22E/R36S)-Fn8-COL18NC1-30, GLP-1(A8G/G22E/R36S)-Fn8-COL18NC1-54 and GLP-1(A8G/G22E/R36S)-Fn8-COL18NC1-60 were grafted to the pET29b by NdeI and XhoI for protein expressions. The expression and purification of these fusion proteins were carried out using similar protocols described in example 3. To estimate the hydrodynamic radius and/or the Rg of the fusion proteins, the purified proteins were loaded on an analytical gel filtration column Superdex200 (GE Healthcare).
Moreover, the flexible unstructured linker between the therapeutic polypeptide and the scaffold protein may adjust the hydrodynamic radius and/or the Rg of the fusion molecule in a tunable manner.
The apparent molecular weights of the fusion proteins were estimated by use of an analytical gel filtration column Superdex-200 (GE Healthcare) mounted on the AKTA FPLC system (GE Healthcare). The purified fusion proteins GLP-1-Fn8, GLP-1-Fn8-COL18NC1, GLP-1(A8G/G22E/R36G)-Fn8-p246-COL18NC1 were loaded on the Superdex200 column. GLP-1-Fn8 is a fusion protein of GLP-1 and Fn8 and contains the first 144 amino acid residues of the fusion protein GLP-1-Fn8-COL18NC1 (SEQ ID NO:2). […] The genuine molecular weights for the fusion proteins GLP-1-Fn8 monomer, GLP-1-Fn8-COL18NC1 trimer, and GLP-1(A8G/G22E/R36G)-Fn8-p246-COL18NC1 trimer were ˜15 Kd, 65 Kd and 123Kd, respectively.

B1: GLP1(A8G/G22E/R36G)-Fn8-p246-COL18NC1: GLP-1 mutant, Fn8, pCloud p246, COL18NC1 fusion; SEQ ID NO: 16 (protein)
chain: HGEGTFTSDVSSYLEEQAAKEFIAWLVKGGGSGGGSGGGSGGGSGGGSGSGGAVPPPTDLRFTNIGPDTMRVTWAPPPSIDLTNFLVRYSPVKNEEDVAELSISPSDNAVVLTNLLPGTEYVVSVSSVYEQHESTPLRGRQKTGGGGSGGGSGSGSESGSGGGSTSSGTGSETESPGSGSESGSGPSSAGSGSGSESGSGSGSSGPGSTGGSGSESGSGPGSSGTGGTATGSGSESGSGPGSSGPGSTGSGSGSESGSGSGSSGTGSTGGSGSESGSGPGSPRPGSTGTGSGSESGSGPGSSERGSAGGSGSESGSGTSESSASGSTGGSGSESGSGSESGSGSGSESGSGPESPGSGGSGSESGSGTSGSTGSGSESGSGGGSGGGSGGGASSGVRLWATRQAMLGQVHEVPEGWLIFVAEQEELYVRVQNGFRKVQLEARTPLPRG
With B1 the “specific antibody against the fusion protein” value (cynomolgus monkeys) was “no specific antibody was induced” and the apparent molecular weight [1] was ~550 Kd.

Source: patent US10246503B2, “Method of improving the pharmacokinetic profile of a therapeutic polypeptide and the use thereof” (BEIJING ANXINHUAIDE BIOTECH. CO., LTD, priority 2012, dated 2019)
